According to patent publication US20250129146A1, “COMBINED CANCER THERAPY WITH AN EPITHELIAL CELL ADHESION MOLECULE (EPCAM) INHIBITOR AND A WNT INHIBITOR” (ACADEMIA SINICA, priority 2021, published 2025):

How the values were obtained:
[1] = test system: colon cancer cells (SW620, HCT116); test: Annexin-V/PI apoptosis assay; assay type: cell-based, human
Experimental: Cells were seeded in 24-well plate ([…] cells per well) overnight and then treated with 20 μg/mL mEpAb2-6, hEpAb2-6 or MT201, or […] LGK974 (MedChemExpress) or the combination for 24 hrs. Cell pellets were collected, and an apoptosis assay was performed using an Annexin-V/PI apoptosis kit (BD Biosciences). Results were read by flow cytometry analysis percentage apoptotic cells was calculated.

EpCAM = test: Antibody binding to EpCAM wild-type, deletion and point mutants in HEK293T cells (immunofluorescence, flow cytometry, cellular ELISA); set-up: species or system human; settings: mutations at EpCAM positions Y32 (EGF-I domain) or Y95 (EGF-II domain); HEK293T cells
Experimental: FIGS. 18A to 18G. […] HEK293T cells were transfected with full length or EGF like-domain deletion mutant EpCAM-V5. Antibody binding was assessed by (FIG. 8A) Western blotting, (FIG. 8B) flow cytometry, and (FIG. 8C) immunofluorescence. (FIG. 8D) EpCAM mutants were constructed with amino acid substitutions in the EGF-I (Y32A) and EGF-II (L94A, Y95A, or D96A) domains. EpCAM wild-type and mutant proteins were expressed in HEK293T cells. Binding of MT201, EpAb2-6 and EpAb23-1 to EpCAM wild-type and mutants were evaluated by (FIG. 8E) immunofluorescence, (FIG. 8F) flow cytometry, and (FIG. 8G) cellular ELISA. All data are presented as mean±SEM. *, p<0.05; **, p<0.01.
Here, we wanted to determine whether the antibody binds to EpCAM at both EGF-like domains of EpEX (FIG. 18A, FIG. 18B, FIG. 18C). To confirm that EpAb2-6 recognizes the LYD motif in EpCAM, we constructed cDNA sequences encoding the first (aa 27-59; EGF-I domain) and second (aa 66-135; EGF-II/TY domain) EGF-like repeats of EpCAM. PCR-based site-directed mutagenesis was then used to introduce mutations into each domain (FIG. 18D). The reactivity of EpAb2-6 antibody toward these EpCAM mutants was evaluated by immunofluorescence (FIG. 18E), flow cytometry (FIG. 18F), and cellular ELISA (FIG. 18G).

recombinant LRP5 = biological target: T1, recombinant LRP5 (Homo sapiens, UniProt O75197); test: ELISA of EpEX binding to Wnt receptor-coated plates (LRP5)
T1 construct: purchased Proteintech
T1 sequence (O75197 32-1615): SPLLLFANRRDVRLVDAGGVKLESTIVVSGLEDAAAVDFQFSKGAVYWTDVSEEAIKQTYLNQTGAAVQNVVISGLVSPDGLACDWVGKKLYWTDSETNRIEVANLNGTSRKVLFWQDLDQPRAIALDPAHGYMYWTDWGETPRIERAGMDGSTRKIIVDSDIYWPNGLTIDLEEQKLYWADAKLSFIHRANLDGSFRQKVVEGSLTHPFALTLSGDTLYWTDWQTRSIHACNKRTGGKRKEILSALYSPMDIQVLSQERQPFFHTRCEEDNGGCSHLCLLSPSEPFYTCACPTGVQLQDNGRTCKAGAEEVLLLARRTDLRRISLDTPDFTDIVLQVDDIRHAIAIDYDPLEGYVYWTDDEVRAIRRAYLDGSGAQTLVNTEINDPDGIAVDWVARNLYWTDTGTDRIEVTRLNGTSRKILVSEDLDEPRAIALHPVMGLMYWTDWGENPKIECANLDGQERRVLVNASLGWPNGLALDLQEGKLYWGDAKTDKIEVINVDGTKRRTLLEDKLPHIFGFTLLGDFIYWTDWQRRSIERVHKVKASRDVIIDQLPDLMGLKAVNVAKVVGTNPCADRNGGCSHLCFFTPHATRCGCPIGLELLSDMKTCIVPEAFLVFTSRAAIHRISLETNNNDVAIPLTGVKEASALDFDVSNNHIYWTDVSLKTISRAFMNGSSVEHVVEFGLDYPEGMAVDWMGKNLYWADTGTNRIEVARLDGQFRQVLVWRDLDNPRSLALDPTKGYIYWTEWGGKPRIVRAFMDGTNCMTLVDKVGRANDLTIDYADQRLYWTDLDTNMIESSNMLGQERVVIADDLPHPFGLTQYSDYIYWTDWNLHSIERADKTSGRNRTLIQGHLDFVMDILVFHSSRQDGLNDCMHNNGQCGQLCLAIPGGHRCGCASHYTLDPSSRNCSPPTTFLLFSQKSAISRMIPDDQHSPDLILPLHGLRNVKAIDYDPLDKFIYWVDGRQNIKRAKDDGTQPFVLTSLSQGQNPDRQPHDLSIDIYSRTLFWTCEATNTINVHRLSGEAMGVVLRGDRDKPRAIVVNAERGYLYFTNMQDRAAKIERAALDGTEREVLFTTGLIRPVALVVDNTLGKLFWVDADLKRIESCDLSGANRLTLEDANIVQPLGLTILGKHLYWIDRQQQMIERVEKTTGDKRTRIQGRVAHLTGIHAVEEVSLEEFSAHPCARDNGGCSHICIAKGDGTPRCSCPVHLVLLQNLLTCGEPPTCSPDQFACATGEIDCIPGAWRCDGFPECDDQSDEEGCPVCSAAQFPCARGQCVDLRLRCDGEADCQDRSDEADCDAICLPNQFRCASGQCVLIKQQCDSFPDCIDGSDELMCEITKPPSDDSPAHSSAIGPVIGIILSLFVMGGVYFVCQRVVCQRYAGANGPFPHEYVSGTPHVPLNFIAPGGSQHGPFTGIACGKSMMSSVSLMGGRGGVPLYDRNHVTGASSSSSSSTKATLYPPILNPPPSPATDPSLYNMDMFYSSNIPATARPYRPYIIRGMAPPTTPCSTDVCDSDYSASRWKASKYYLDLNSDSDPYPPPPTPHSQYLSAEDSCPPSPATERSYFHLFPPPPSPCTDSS
Experimental: (§1) For ELISA, wells (at least 6 wells per single protein) were coated with recombinant FZD6 (Proteintech), recombinant FZD7 (Proteintech), recombinant LRP5 (Proteintech), recombinant LRP6 (Proteintech) overnight at 4° C. The wells were then blocked with 1% BSA and treated with EpEX-his (Produced in house by Expi293 Expression System) for 2 hours. Otherwise, EpEX-His was incubated with EpAb2-6 overnight and the complex was used to treat the protein-coated plates for 2 hours. Further anti-His antibody (abeam) was used and TMB was performed to record optical density at 450 nm.

recombinant FZD7 = biological target: T2, recombinant FZD7 (Homo sapiens, UniProt O75084); test: ELISA of EpEX binding to Wnt receptor-coated plates (FZD7)
T2 construct: purchased Proteintech
Experimental: as §1

γ-secretase = test: γ-Secretase activity (luciferase reporter); assay type: cell-based, human; settings: HCT116 and HT29 cells; 250 ng/mL EpEX-His or 100 ng/mL Wnt3A for 8 h, or combination
Experimental: The γ-secretase activity was measured using the protocol described by Liao et al (2004) (Liao et al., 2004). In brief, cells were transiently transfected with the control plasmid and tetracycline-inducible γ-secretase plasmid harboring luciferase (Liao et al., 2004) (the plasmids were generous gifts from Dr. Yung-Feng Liao, ICOB, Academia Sinica). Cells were treated with 250 ng/mL EpEX-His or 100 ng/mL Wnt3A (R&D Systems) for 8 h. Further, cells were lysed using passive lysis buffer and subjected to the luciferase assay.

Axin2 = test: Wnt-target Axin2 expression (western blot, qPCR); assay type: cell-based, human; settings: HT29 and HCT116 cells; EpEX, Wnt3A or combination; protein and mRNA
Experimental: For western blotting, cells were extracted using radioimmunoprecipitation assay (RIPA) buffer [(0.01 M sodium phosphate, pH 7.2), 150 mM NaCl, 2 mM EDTA, 50 mM NaF, 1% Nonidet P-40, 1% sodium deoxycholate, and 0.1% SDS)] containing phosphatase inhibitor (Roche) and protease inhibitor (Roche) cocktail. Equal amounts of protein were separated by SDS-PAGE and then transferred to PVDF membranes. The membranes were blocked with 3% BSA in TBST (Blocking solution) and incubated with necessary primary antibodies in the blocking solution overnight at 4° C. Membranes were then incubated with HRP-conjugated secondary antibodies in the blocking solution for 1 h at room temperature, and protein expression were detected. […]
Total RNA was extracted using TRI reagent and 5 μg of the total RNA was further reverse-transcribed using oligo (dT) primer with reverse transcriptase. Quantitative real time RT-PCR (qPCR) was performed on cDNA using the Light Cycler 480 SYBR Green-I Master kit and the LightCycler480 System. […]

[2] = test system: TACE and presenilin-2 (PS2); test: Phosphorylation of ADAM17 (TACE) and Presenilin2 (western blot); assay type: cell-based, human; settings: HCT116 cells; EpEX, Wnt3A for 8 h
Experimental: For western blotting, cells were extracted using radioimmunoprecipitation assay (RIPA) buffer [(0.01 M sodium phosphate, pH 7.2), 150 mM NaCl, 2 mM EDTA, 50 mM NaF, 1% Nonidet P-40, 1% sodium deoxycholate, and 0.1% SDS)] containing phosphatase inhibitor (Roche) and protease inhibitor (Roche) cocktail. Equal amounts of protein were separated by SDS-PAGE and then transferred to PVDF membranes. The membranes were blocked with 3% BSA in TBST (Blocking solution) and incubated with necessary primary antibodies in the blocking solution overnight at 4° C. Membranes were then incubated with HRP-conjugated secondary antibodies in the blocking solution for 1 h at room temperature, and protein expression were detected. Antibodies used: anti-α-tubulin (Sigma), anti-EpCAM (abeam), anti-Active β-Catenin (Millipore), anti-total β-Catenin (abeam), anti-Frizzled 6 (CST), anti-Frizzled 7 (Santa Cruz Biotech), anti-LRP5 (abcam), anti-Phospho-LRP5 (abcam), anti-Phospho-LRP6 (CST), anti-LRP6 (CST) and anti-EpEX antibody EpAb3-5 (Produced in house), anti-ADAM17 (abcam), anti-phopho-ADAM17 (abcam), anti-Presenilin2 (abcam), anti-phospho-Presenilin2 (S327) (abcam), anti-phospho-Presenilin2 (S330) (abcam) and anti-Axin2 (CST).
To study the kinase activity of GSK3 and CK1, 10^6 cells were seeded overnight and treated with GSK3 inhibitor BIO (Sigma) or CK1 inhibitor PF-670462 (selleckchem) for 8 h. […]

[3] = EpEX-His incubated with antibody overnight
[4] = EpEX-His alone, 2 hours, optical density at 450 nm

Molecule: MT201: adecatumumab, a human anti-EpCAM antibody that was subjected to clinical trials [reference compound]
- induction of apoptosis ([1]; HCT116 cells, 20 μg/mL hEpAb2-6, mEpAb2-6 or MT201 for 24 hrs): does not have such activity
- antibody binding to EpCAM mutants (EpCAM): did not affect MT201 binding

B1: EpAb2-6: anti-EpCAM (EpEX) neutralizing monoclonal antibody produced in mice by hybridoma; VH SEQ ID NO: 15, VL SEQ ID NO: 16 (antibody, V domains shown)
VH: VKLQESGPELKKPGETVKISCKASGYTFTDYSMHWVKQAPGKGLKWMGWINTETGEPTYADDFKGRFAFSLETSASTAYLQINNLKNEDTATYFCARTAVYWGQGTTVTVSS
VL: DIQMTQSPSSLSASLGERVSLTCRASQEISVSLSWLQQEPDGTIKRLIYATSTLDSGVPKRFSGSRSGSDYSLTISSLESEDFVDYYCLQYASYPWTFGGGTKLEIK
- EpEX binding to LRP5 after pre-incubation with antibody (recombinant LRP5; [3]): substantially decreased binding
- induction of apoptosis ([1]; SW620 and HCT116 cells, 20 μg/mL EpAb2-6, LGK974 or the combination for 24 hrs): could induce apoptosis
- EpEX binding to FZD7 after pre-incubation with antibody (recombinant FZD7; [3]): substantially decreased binding
- antibody binding to EpCAM mutants (EpCAM): marked reductions in EpAb2-6 binding

B2: EpEX: extracellular domain of EpCAM, produced in house by Expi293 Expression System (protein)
chain: QEECVCENYKLAVNCFVNNNRQCQCTSVGAQNTVICSKLAAKCLVMKAEMNGSKLGRRAKPEGALQNNDGLYDPDCDESGLFKAKQCNGTSMCWCVNTAGVRRTDKDTEITCSERVRTYWIIIELKHKAREKPYDSKSLRTALQKEITTRYQLDPKFITSILYENNVITIDLVQNSSQKTQNDVDIADVAYYFEKDVKGESLFHSKKMDLTVNGEQLDLDPGQTLIYYVDEKAPEFSMQGLKAGVIAVIVVVVIAVVAGIVVLVISRKKRMAKYEKAEIKEMGEMHRELNA
- EpEX binding to LRP5 (recombinant LRP5; [4]): bind with all receptor proteins
- γ-secretase activity (γ-secretase): enhanced
- EpEX binding to FZD7 (recombinant FZD7; [4]): bind with all receptor proteins
- Axin2 expression (Axin2): increased Axin2 expression
- phosphorylation of TACE and presenilin-2 (PS2) [2]: increases the phosphorylation

B3: Wnt3A: recombinant Wnt3A (R & D systems) (protein, UniProt P56704 19-352, looked up)
Protein Wnt-3a: SYPIWWSLAVGPQYSSLGSQPILCASIPGLVPKQLRFCRNYVEIMPSVAEGIKIGIQECQHQFRGRRWNCTTVHDSLAIFGPVLDKATRESAFVHAIASAGVAFAVTRSCAEGTAAICGCSSRHQGSPGKGWKWGGCSEDIEFGGMVSREFADARENRPDARSAMNRHNNEAGRQAIASHMHLKCKCHGLSGSCEVKTCWWSQPDFRAIGDFLKDKYDSASEMVVEKHRESRGWVETLRPRYTYFKVPTERDLVYYEASPNFCEPNPETGSFGTRDRTCNVSSHGIDGCDLLCCGRGHNARAERRREKCRCVFHWCCYVSCQECTRVYDVHTCK
- γ-secretase activity (γ-secretase): enhanced
- Axin2 expression (Axin2): increased Axin2 expression
- phosphorylation of TACE and presenilin-2 (PS2) [2]: increases the phosphorylation
